Article PMC8825798 (Communications Biology, 2022)
“And” between values parts separate entries of the source, which are not always exact repeats. Identical values can stand only once.

Tests used:
Experiment in all cases: BLI
Settings in all cases: both partners purified
[1] = target: T1, spike hepta-peptide Tyr1272 → Ala (1267Gly-Val-Lys-Leu-His-Ala-Thr1273) (SARS-CoV-2, Tyr^1272 → Ala (stands in the printed letters))
T1 peptide: GVKLHAT

[2] = target: T2, spike hepta-peptide Thr1273 → Gln (SARS-CoV-2, Gln^1273 (stands in the printed letters))
T2 peptide: GVKLHYQ

[3] = target: T3, spike hepta-peptide Thr1273 → Glu (SARS-CoV-2, Thr^1273 → Glu (stands in the printed letters))
T3 peptide: GVKLHYE

[4] = target: T4, spike hepta-peptide Thr1273 → Arg (SARS-CoV-2, Arg^1273 (stands in the printed letters))
T4 peptide: GVKLHYR

[5] = target: T5, spike hepta-peptide Thr1273 → Val (SARS-CoV-2, Thr^1273 → Val (stands in the printed letters))
T5 peptide: GVKLHYV

[6] = target: T6, spike hepta-peptide Thr1273 → Ala (1267Gly-Val-Lys-Leu-His-Tyr-Ala1273) (SARS-CoV-2, Thr^1273 → Ala (stands in the printed letters))
T6 peptide: GVKLHYA

B1: αCOPI-WD40 domain (residues 1-327) from Schizosaccharomyces pombe (domain or fragment)
chain: MEMLTKFESRSSRAKGVAFHPTQPWILTSLHNGRIQLWDYRMGTLLDRFDGHDGPVRGIAFHPTQPLFVSGGDDYKVNVWNYKSRKLLFSLCGHMDYVRVCTFHHEYPWILSCSDDQTIRIWNWQSRNCIAILTGHSHYVMCAAFHPSEDLIVSASLDQTVRVWDISGLRMKNAAPVSMSKEDQKAQAHNSKSNDKKGSTDAIVKFVLEGHDRGVNWCAFHPTLPLILSAGDDRLVKLWRMTASKAWEVDTCRGHFNNVSCCLFHPHQELILSASEDKTIRVWDLNRRTAVQTFRRDNDRFWFITVHPKLNLFAAAHDSGVMVFKLE
With B1 the Kd [1] was 3770 nM and 2320 nM, the koff [1] was 0.28 s⁻¹ and the kon [1] was 121000 M⁻¹ s⁻¹. The Kd [2] was 780 nM and 1150 nM, the koff [2] was 0.066 s⁻¹ and the kon [2] was 60000 M⁻¹ s⁻¹. The Kd [3] was 310 nM and 380 nM, the koff [3] was 0.024 s⁻¹ and the kon [3] was 59000 M⁻¹ s⁻¹. For the same binder, the Kd [4] was 1730 nM and 1290 nM, the koff [4] was 0.177 s⁻¹ and the kon [4] was 57600 M⁻¹ s⁻¹. The Kd [5] was 3200 nM and 2060 nM, the koff [5] was 0.212 s⁻¹ and the kon [5] was 103000 M⁻¹ s⁻¹. For the same binder, the Kd [6] was 1130 nM and 1140 nM, the koff [6] was 0.076 s⁻¹ and the kon [6] was 66700 M⁻¹ s⁻¹.
